The record followed here is patent US20150093787.

This data set deals with Int-His6 (bacteriophage lambda integrase, with IHF; BP Clonase) (Bacteriophage lambda) (UniProt P03700+P0A6X7+P0A6Y1). Nature of the data set: cell_activity. Conditions: degenerate pool vs attB1-LacZa-attB2, overnight.
Sequence of UniProt P03700 (P03700 whole entry, chain 1 of 3): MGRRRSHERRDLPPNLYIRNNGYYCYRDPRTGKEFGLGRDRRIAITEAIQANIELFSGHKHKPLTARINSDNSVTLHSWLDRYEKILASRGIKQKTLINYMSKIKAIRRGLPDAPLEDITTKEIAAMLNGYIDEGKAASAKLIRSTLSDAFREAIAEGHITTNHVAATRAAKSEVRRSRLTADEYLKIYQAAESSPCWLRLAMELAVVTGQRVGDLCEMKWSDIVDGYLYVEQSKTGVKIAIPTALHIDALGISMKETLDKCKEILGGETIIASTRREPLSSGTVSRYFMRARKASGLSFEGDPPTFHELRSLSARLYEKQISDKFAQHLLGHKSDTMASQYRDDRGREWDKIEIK
Sequence of UniProt P03700 (P0A6X7 2-99, chain 2 of 3): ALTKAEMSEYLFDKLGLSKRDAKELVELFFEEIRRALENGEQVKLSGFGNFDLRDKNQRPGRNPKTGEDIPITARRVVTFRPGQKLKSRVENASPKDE
Sequence of UniProt P03700 (P0A6Y1 whole entry, chain 3 of 3): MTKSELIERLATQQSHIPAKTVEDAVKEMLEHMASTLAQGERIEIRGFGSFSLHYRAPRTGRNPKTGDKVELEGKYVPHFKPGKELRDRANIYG
As to “GGGGACAAGTTTGTACAAAAAAGCNNNNN (double strand) [attB1n21-25]”, the binding signal is 14%. “GGGGACAAGTTTGTACAAANNNNNAGGCT (double strand) [attB1n16-20]” had a binding signal of 1.5%.

As for “GGGGACCACTTTGTACAAGAAAGCNNNNN (double strand) [attB2n21-25]”, the binding signal stood at 21%.

With “GGGGACCACTTTGTACAAGNNNNNTGGGT (double strand) [attB2n16-20]”, the binding signal was determined as 0.9%.
